This test deals with Paracoccus denitrificans FnrP (Paracoccus denitrificans). Put plainly: SEC; analytical gel filtration under anaerobic conditions, calibrated Sephacryl S-100HR 16/50, assay buffer (25 mM HEPES, 2.5 mM CaCl2, 100 mM NaCl, 100 mM NaNO3, pH 7.5), 1 ml/min; reconstituted [4Fe–4S] FnrP (~90 % loaded) loaded at ~28 μM [4Fe–4S], in the absence of O2. On the technique in general: In gel filtration, larger molecules generally elute earlier.

Broadly, the stoichiometry N is a count of units in the complex or per binding partner.

With “Paracoccus denitrificans FnrP (natural protein)”, the stoichiometry N came to 2.
